Data from patent US7528106B2, “Compositions and methods for treatment of neovascular diseases” (The Scripps Research Institute, priority 2004, dated 2009).

System: deep retinal vascular network formation in neonatal Balb/C mice
Test: Neonatal mouse retinal angiogenesis model
Format: in vivo
Settings: for % of eyes with 0-10% inhibition of deep vascular layer / % of eyes with 10-25% inhibition of deep vascular layer / % of eyes with 25-50% inhibition of deep vascular layer / % of eyes with 50-75% inhibition of deep vascular layer / % of eyes with 75-100% inhibition of deep vascular layer / % of eyes with 100% inhibition of deep vascular layer / % of eyes with >95% inhibition of deep vascular layer: intravitreal P4, read P12
From the text: Description of the Model. Immediately after birth (postnatal day zero; “P0”), retinal vasculature is virtually absent in the mouse. By four weeks after birth (P28) the retina has attained an adult pattern of retinal vessels coincident with the onset of vision. Physiological neovascularization of the retina occurs during this period via a stereotypical, biphasic developmental pattern of angiogenesis. During the primary phase of retinal vascular development, spoke-like peripapillary vessels grow radially from the central retinal artery and vein, becoming progressively interconnected by a capillary plexus that forms between them. This “inner retinal plexus” grows in area, volume and complexity, centrifugally, as a monolayer within the nerve fiber layer during the first seven to ten days following birth.
The second phase of retinal vessel formation begins between postnatal days 7 (P7) and 10 (P10) when collateral branches sprout from capillaries of the superficial plexus and penetrate into the retina where their tips branch and anastamose laterally to form a planar “deep vascular plexus”. While the deep vascular plexus is in place by P14, it undergoes extensive remodeling from P14 to P21. It is of interest to note that the formation of these vascular networks in the neonatal mouse are strikingly similar to the events occurring in the third trimester human fetus.
Advantages and Quantification of the Model. The reproducibility of the murine retinal development process and its easy accessibility in neonatal animals provide an opportunity to assess the efficacy of antiangiogenic compounds in a physiologically relevant model of angiogenesis. Additional advantages of the neonatal mouse model are the ability to qualitatively and quantitatively evaluate the angiostatic effect of putative antagonists of angiogenesis. Angiostatic activity was evaluated based upon the degree of angiogenesis in the deep, outer retinal vascular layer (secondary layer) that develops between P8 and P12. The appearance of the inner blood vessel network (primary layer) was evaluated for normal development and signs of toxicity.
Preparation of Compositions. Peptidomimetic integrin signaling inhibitor Compound (1) is solubilized in PBS at a concentration of about 20 mg/ml in PBS (1× concentration). T2-TrpRS is solubilized in PBS at a concentration of about 0.5 mg/ml (1× concentration). VEGF aptamer (pegaptanib sodium; Compound (2)) is solubilized in PBS at a concentration of about 2 mg/ml (1× concentration) to achieve an injection of approximately 1 μg/eye at 1× concentration. For all combination assays the compounds were prepared at 2 or 3 times the 1× concentration of each material and then combined to produce a final solution containing each individual compound at the same concentration as was used alone (e.g., 1×, 0.5×, 0.25× or 0.1×, as the case may be). For all assays, a single injection of 0.5 μl of PBS solutions of the drugs was administered intravitreally regardless of the number of compounds being injected. As used herein, the term “0.1×” refers to one tenth of the 1× concentration of a given material, “0.25×” refers to one quarter of the 1× concentration of a given material, “0.5×” refers to one half of the 1× concentration of a given material, and so forth for similar designations.
An in vivo angiogenesis assay in the neonatal mouse (Balb/C, The Jackson Laboratory, Bar Harbor, Me.) was used to evaluate the angiostatic activity of integrin signaling inhibitor Compound (1), T2-TrpRS, and VEGF aptamer Compound (2). Intravitreous injection and retina isolation was performed with a dissecting microscope (SMZ 645, Nikon, Japan). […] The samples (0.5 μl) were injected with a Hamilton syringe fitted with a 32-gauge needle (Hamilton Company, Reno, Nev.). The injection was made between the equator and the corneal limbus. During injection, the location of the needle tip was monitored by direct visualization to determine that it was in the vitreal cavity. […]

[1] = Ex 2, 0.1× of each (1×: T2-TrpRS 0.5, Comp. (2) 2 mg/ml)
[2] = Ex 3, 1× of each (T2-TrpRS 0.5, Comp. (2) 2 mg/ml)
[3] = Ex 6, 1× of each (T2-TrpRS 0.5, Comp. (2) 2 mg/ml)
[4] = Ex 7, 1× (T2-TrpRS 0.5, Comp. (2) 2 mg/ml)
[5] = Ex 9, 1× of each (Comp. (1) 20, Comp. (2) 2, T2-TrpRS 0.5 mg/ml)

B1: T2-TrpRS: 43 kDa angiostatic T2 fragment of human tryptophanyl-tRNA synthetase, SEQ ID NO: 1 (protein)
chain: MSAKGIDYDKLIVRFGSSKIDKELINRIERATGQRPHHFLRRGIFFSHRDMNQVLDAYENKKPFYLYTGRGPSSEAMHVGHLIPFIFTKWLQDVFNVPLVIQMTDDEKYLWKDLTLDQAYSYAVENAKDIIACGFDINKTFIFSDLDYMGMSSGFYKNVVKIQKHVTFNQVKGIFGFTDSDCIGKISFPAIQAAPSFSNSFPQIFRDRTDIQCLIPCAIDQDPYFRMTRDVAPRIGYPKPALLHSTFFPALQGAQTKMSASDPNSSIFLTDTAKQIKTKVNKHAFSGGRDTIEEHRQFGGNCDVDVSFMYLTFFLEDDDKLEQIRKDYTSGAMLTGELKKALIEVLQPLIAEHQARRKEVTDEIVKEFMTPRKLSFDFQ
modifications: homo sapiens
For B1, the inhibition of neovascularization (0.1× concentrations (1 μg/eye integrin antagonist, 0.2 μg/eye VEGF aptamer, 0.025 μg/eye T2-TrpRS)) was “negligible”, the “% of eyes with 0-10% inhibition of deep vascular layer” value [1] was 50% and the “% of eyes with 10-25% inhibition of deep vascular layer” value [1] was 37.5%. The “% of eyes with 25-50% inhibition of deep vascular layer” value [1] was 12.5%, the “% of eyes with 50-75% inhibition of deep vascular layer” value [1] was 0% and the “% of eyes with 75-100% inhibition of deep vascular layer” value [1] was 0%. The “% of eyes with 100% inhibition of deep vascular layer” value [1] was 0%, the “% of eyes with >95% inhibition of deep vascular layer” value [1] was 0% and the “% of eyes with 0-10% inhibition of deep vascular layer” value [2] was 12.5%. The “% of eyes with 10-25% inhibition of deep vascular layer” value [2] was 12.5%, the “% of eyes with 25-50% inhibition of deep vascular layer” value [2] was 0% and the “% of eyes with 50-75% inhibition of deep vascular layer” value [2] was 12.5%. For the same molecule, the “% of eyes with 75-100% inhibition of deep vascular layer” value [2] was 62.5%, the “% of eyes with 100% inhibition of deep vascular layer” value [2] was 12.5% and the “% of eyes with >95% inhibition of deep vascular layer” value [2] was 12.5%. The “% of eyes with 0-10% inhibition of deep vascular layer” value (Ex 4, 1× (0.5 mg/ml)) was 12.5%, the “% of eyes with 10-25% inhibition of deep vascular layer” value (Ex 4, 1× (0.5 mg/ml)) was 37.5% and the “% of eyes with 25-50% inhibition of deep vascular layer” value (Ex 4, 1× (0.5 mg/ml)) was 12.5%. For the same molecule, the “% of eyes with 50-75% inhibition of deep vascular layer” value (Ex 4, 1× (0.5 mg/ml)) was 12.5%, the “% of eyes with 75-100% inhibition of deep vascular layer” value (Ex 4, 1× (0.5 mg/ml)) was 25% and the “% of eyes with 100% inhibition of deep vascular layer” value (Ex 4, 1× (0.5 mg/ml)) was 0%. For the same molecule, the “% of eyes with >95% inhibition of deep vascular layer” value (Ex 4, 1× (0.5 mg/ml)) was 0%, the “% of eyes with 0-10% inhibition of deep vascular layer” value (Ex 5, 1× (0.5 mg/ml)) was 33.3% and the “% of eyes with 10-25% inhibition of deep vascular layer” value (Ex 5, 1× (0.5 mg/ml)) was 16.7%. For the same molecule, the “% of eyes with 25-50% inhibition of deep vascular layer” value (Ex 5, 1× (0.5 mg/ml)) was 33.3%, the “% of eyes with 50-75% inhibition of deep vascular layer” value (Ex 5, 1× (0.5 mg/ml)) was 0% and the “% of eyes with 75-100% inhibition of deep vascular layer” value (Ex 5, 1× (0.5 mg/ml)) was 16.7%. The “% of eyes with 100% inhibition of deep vascular layer” value (Ex 5, 1× (0.5 mg/ml)) was 0%, the “% of eyes with >95% inhibition of deep vascular layer” value (Ex 5, 1× (0.5 mg/ml)) was 16.7% and the “% of eyes with 0-10% inhibition of deep vascular layer” value [3] was 50%. For the same molecule, the “% of eyes with 10-25% inhibition of deep vascular layer” value [3] was 25%, the “% of eyes with 25-50% inhibition of deep vascular layer” value [3] was 12.5% and the “% of eyes with 50-75% inhibition of deep vascular layer” value [3] was 12.5%. For the same molecule, the “% of eyes with 75-100% inhibition of deep vascular layer” value [3] was 0%, the “% of eyes with 100% inhibition of deep vascular layer” value [3] was 0% and the “% of eyes with >95% inhibition of deep vascular layer” value [3] was 0%. For the same molecule, the “% of eyes with 0-10% inhibition of deep vascular layer” value [4] was 25%, the “% of eyes with 10-25% inhibition of deep vascular layer” value [4] was 12.5% and the “% of eyes with 25-50% inhibition of deep vascular layer” value [4] was 12.5%. The “% of eyes with 50-75% inhibition of deep vascular layer” value [4] was 0%, the “% of eyes with 75-100% inhibition of deep vascular layer” value [4] was 50% and the “% of eyes with 100% inhibition of deep vascular layer” value [4] was 0%. For the same molecule, the “% of eyes with >95% inhibition of deep vascular layer” value [4] was 12.5%, the “% of eyes with 0-10% inhibition of deep vascular layer” value (Ex 8, 1× (0.5 mg/ml)) was 30% and the “% of eyes with 10-25% inhibition of deep vascular layer” value (Ex 8, 1× (0.5 mg/ml)) was 30%. The “% of eyes with 25-50% inhibition of deep vascular layer” value (Ex 8, 1× (0.5 mg/ml)) was 20%, the “% of eyes with 50-75% inhibition of deep vascular layer” value (Ex 8, 1× (0.5 mg/ml)) was 10% and the “% of eyes with 75-100% inhibition of deep vascular layer” value (Ex 8, 1× (0.5 mg/ml)) was 10%. The “% of eyes with 100% inhibition of deep vascular layer” value (Ex 8, 1× (0.5 mg/ml)) was 0%, the “% of eyes with >95% inhibition of deep vascular layer” value (Ex 8, 1× (0.5 mg/ml)) was 0% and the “% of eyes with 0-10% inhibition of deep vascular layer” value [5] was 12.5%. For the same molecule, the “% of eyes with 10-25% inhibition of deep vascular layer” value [5] was 0%, the “% of eyes with 25-50% inhibition of deep vascular layer” value [5] was 25% and the “% of eyes with 50-75% inhibition of deep vascular layer” value [5] was 12.5%. The “% of eyes with 75-100% inhibition of deep vascular layer” value [5] was 50%, the “% of eyes with 100% inhibition of deep vascular layer” value [5] was 0% and the “% of eyes with >95% inhibition of deep vascular layer” value [5] was 12.5%. For the same molecule, the “% of eyes with 0-10% inhibition of deep vascular layer” value (Ex 10, 0.1× (1×=0.5 mg/ml)) was 75%, the “% of eyes with 10-25% inhibition of deep vascular layer” value (Ex 10, 0.1× (1×=0.5 mg/ml)) was 25% and the “% of eyes with 25-50% inhibition of deep vascular layer” value (Ex 10, 0.1× (1×=0.5 mg/ml)) was 0%. For the same molecule, the “% of eyes with 50-75% inhibition of deep vascular layer” value (Ex 10, 0.1× (1×=0.5 mg/ml)) was 0%, the “% of eyes with 75-100% inhibition of deep vascular layer” value (Ex 10, 0.1× (1×=0.5 mg/ml)) was 0% and the “% of eyes with 0-10% inhibition of deep vascular layer” value (Ex 10, 0.3× (1×=0.5 mg/ml)) was 33.3%. The “% of eyes with 10-25% inhibition of deep vascular layer” value (Ex 10, 0.3× (1×=0.5 mg/ml)) was 16.7%, the “% of eyes with 25-50% inhibition of deep vascular layer” value (Ex 10, 0.3× (1×=0.5 mg/ml)) was 8.3% and the “% of eyes with 50-75% inhibition of deep vascular layer” value (Ex 10, 0.3× (1×=0.5 mg/ml)) was 16.7%.
